T1: human MerTK on M2c-differentiated human macrophages (human, UniProt Q12866 21-999)
T1 construct: Endogenous MerTK of primary human macrophages; also called M2c-huMacrophages
T1 sequence: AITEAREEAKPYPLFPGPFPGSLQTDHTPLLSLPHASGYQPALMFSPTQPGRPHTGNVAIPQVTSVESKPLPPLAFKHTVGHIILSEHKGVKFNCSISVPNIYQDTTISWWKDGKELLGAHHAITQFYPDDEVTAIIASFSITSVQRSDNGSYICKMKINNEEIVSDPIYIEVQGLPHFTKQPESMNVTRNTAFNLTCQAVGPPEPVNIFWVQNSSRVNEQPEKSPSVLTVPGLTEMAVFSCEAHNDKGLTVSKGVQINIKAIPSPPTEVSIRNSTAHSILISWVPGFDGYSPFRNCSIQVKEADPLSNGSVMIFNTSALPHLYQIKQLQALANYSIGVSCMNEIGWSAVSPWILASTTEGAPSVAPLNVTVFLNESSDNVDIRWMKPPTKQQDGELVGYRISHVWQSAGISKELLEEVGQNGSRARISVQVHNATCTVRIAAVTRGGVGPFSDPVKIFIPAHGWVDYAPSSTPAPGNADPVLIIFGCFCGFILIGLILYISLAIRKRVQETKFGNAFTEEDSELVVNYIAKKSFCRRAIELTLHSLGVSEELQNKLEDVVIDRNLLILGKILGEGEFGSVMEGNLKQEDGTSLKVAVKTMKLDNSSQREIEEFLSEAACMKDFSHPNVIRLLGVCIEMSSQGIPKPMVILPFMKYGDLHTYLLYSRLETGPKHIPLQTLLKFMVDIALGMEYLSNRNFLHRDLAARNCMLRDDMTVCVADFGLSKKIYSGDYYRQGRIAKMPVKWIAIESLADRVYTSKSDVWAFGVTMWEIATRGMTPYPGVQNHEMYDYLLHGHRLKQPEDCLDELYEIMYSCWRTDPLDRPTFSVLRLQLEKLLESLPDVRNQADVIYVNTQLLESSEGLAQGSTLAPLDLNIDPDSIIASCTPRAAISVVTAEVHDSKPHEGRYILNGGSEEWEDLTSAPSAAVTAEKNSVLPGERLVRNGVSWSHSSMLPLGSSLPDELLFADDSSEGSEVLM

T2: recombinant murine MerTK extracellular domain (mouse, UniProt Q60805 19-497)
T2 construct: also called moMerTK; mouse MerTK; not shown: PolyHis tag or TEVS/Thrombin/murine IgG2a Fc tag (a commercial human IgG1 Fc fusion is also mentioned); which form was t
T2 sequence: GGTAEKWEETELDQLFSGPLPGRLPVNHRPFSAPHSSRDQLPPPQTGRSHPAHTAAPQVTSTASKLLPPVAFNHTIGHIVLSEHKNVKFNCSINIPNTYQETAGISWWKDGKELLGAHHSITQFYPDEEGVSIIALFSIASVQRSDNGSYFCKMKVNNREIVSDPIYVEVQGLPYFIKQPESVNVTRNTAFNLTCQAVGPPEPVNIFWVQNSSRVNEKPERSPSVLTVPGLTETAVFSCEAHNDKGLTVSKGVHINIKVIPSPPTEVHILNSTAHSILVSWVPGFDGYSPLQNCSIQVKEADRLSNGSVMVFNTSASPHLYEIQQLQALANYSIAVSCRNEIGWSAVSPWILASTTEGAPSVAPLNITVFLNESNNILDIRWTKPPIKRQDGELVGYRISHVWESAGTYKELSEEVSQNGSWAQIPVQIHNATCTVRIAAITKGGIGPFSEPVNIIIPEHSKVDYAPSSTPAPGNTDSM

B1: monovalent anti-MerTK antibody MTK-16.2 (antibody, V domains shown)
VH: QVQLVQSGSELKKPGASVKVSCKASGYTFTNHGMNWVRQAPGQGLEWMGWINTYTGEPTYADDFKGRFVFSLDTSVSTAYLQISSLKAEDTAVYYCARKGVTAARYFDYWGQGTLVTVSS
VL: DIQMTQSPSSLSASVGDRVTITCRASQNVRTAVAWYQQKPGKAPKRLIYLASNRHTGVPSRFSGSGSGTEFTLTISNLQPEDFATYYCLQHWNYPLTFGGGTKLEIK
B2: bivalent anti-MerTK antibody MTK-16.2 (full IgG) (antibody, V domains shown)
VH: B1 VH
VL: DIQMTQSPSSLSASVGDRVTITCRASQNVRTAVAWYQQKPGKAPKRLIYLASNRHTGVPSRFSGSGSGTEFTLTISNLQPEDFATYYCLQHWNYPLTFGGGTKLEIKR
B3: monovalent anti-MerTK antibody MTK-33.11 (antibody, V domains shown)
VH: QVQLVQSGAEVKKPGASVKVSCKASGYTFTSYWMHWVRQAPGQGLEWIGVIDPSDNYINYNQKFQGRVTMTRDTSTSTVYMELSSLRSEDTAVYYCAREAWTRGYFDYWGQGTLVTVSS
VL: DIQMTQSPSSLSASVGDRVTITCQASRSVRNTVAWYQQKPGKAPKLLIYYASNRYTGVPSRFSGSGSGTDFTFTISSLQPEDIATYYCQQDYRSPFTFGQGTKLEIK
B4: bivalent anti-MerTK antibody MTK-33.11 (full IgG) (antibody, V domains shown)
VH: B3 VH
VL: DIQMTQSPSSLSASVGDRVTITCQASRSVRNTVAWYQQKPGKAPKLLIYYASNRYTGVPSRFSGSGSGTDFTFTISSLQPEDIATYYCQQDYRSPFTFGQGTKLEIKR
B5: bispecific anti-MerTK MTK-33.11:anti-PDL1 antibody (bispecific antibody, V domains shown)
VH 1: B3 VH
VL 1: B3 VL
VH 2: not shown
VL 2: not shown

What was measured:
human PDL1 = target: T3, human PDL1 (human, UniProt Q9NZQ7 19-290); assay: flow cytometry on CHO-huPDL1 OE cells, Dylight650-conjugated antibody
T3 construct: whole, on cells; Also used as the target for the monovalent anti-PDL1 antibody on M2c-differentiated human macrophages (endogenous PDL1); also called huPDL1; programmed death-ligand 1
Text: (§1) Human macrophages were differentiated from human monocytes for 7 days in the presence of human M-CSF, resulting in M2c-differentiated human macrophages. After 7 days, the differentiated human macrophages were harvested (by scraping), resuspended in PBS, and plated on 96-well plates for use. CHO cells overexpressing human MerTK (CHO-huMerTK OE), CHO cells overexpressing human PDL1 (CHO-huPDL1 OE), and M2c-differentiated human macrophages were stained with Dylight650-conjugated bispecific anti-MerTK:anti-PDL1 antibodies, or bivalent anti-MerTK antibodies for 30 min on ice. A range of antibody concentrations were used in these studies to obtain binding curves. All antibodies tested in these studies were IgG1 having Fc regions comprising LALAPS mutations. Cells were fixed and then acquired on a BD FACS Canto II cytometer. The mean fluorescence intensity (MFI) was calculated using FlowJo software and Kd value was calculated using Prism software.

[1] = target: T1, human MerTK on M2c-differentiated human …; assay: flow cytometry on M2c-differentiated human macrophages, Dylight650-conjugated antibody; average FACS Kd from Prism fit of MFI
Text: as §1

[2] = target: T1, human MerTK on M2c-differentiated human …; assay: cell-based or functional assay
[3] = target: T2, recombinant murine MerTK extracellular …; assay: SPR (Carterra LSA), antibody immobilized, MerTK ECD as analyte; estimate, fits not ideal for a 1:1 model
Description: Binding kinetics of bispecific anti-MerTK:anti-PDL1 antibodies of the present disclosure to human, cyno, and murine MerTK were evaluated using a Carterra LSA instrument. […] A HC30 sensor chip (Carterra) was activated using the single channel flow cell with a 7-minute injection of a 1:1:1 mixture of 100 mM MES pH 5.5, 100 mM sulfo-NHS, 400 mM EDC (all reconstituted in MES pH 5.5; 100 μl of each mixed in vial immediately before running assay). After switching to the multi-channel array flow cell, the antibodies were injected over the activated chip in a 96-spot array for 15 minutes. A duplicate injection of the antibodies on a second block of the chip was spotted as before. The remaining unconjugated active groups on the chip were then blocked by injecting 1M Ethanolamine pH 8.5 (Carterra) for 7 minutes using the single channel flow cell.
After priming with running buffer (HBS-TE, Carterra) with 0.5 mg/ml BSA (Sigma), the immobilized anti-MerTK antibodies were tested for their ability to bind to several forms of recombinant MerTK extracellular domain, including that of human, cynomolgus, and mouse orthologs as described above. Estimates of affinity were generated by injecting each analyte over the entire antibody array using the single channel flow cell. […] Dissociation was followed for 300 seconds before regenerating after each injection with 2×30 seconds of 10 mM Glycine pH2.5. Three buffer blanks were run between each series (one species per series). After all concentrations of all three species of MerTK were injected, a duplicate set of injections was performed, so that each concentration for all three species was injected in widely spaced duplicates. Data were processed and analyzed using NextGenKIT high-throughput kinetics analysis software (Carterra).

T3 sequence (Q9NZQ7 19-290): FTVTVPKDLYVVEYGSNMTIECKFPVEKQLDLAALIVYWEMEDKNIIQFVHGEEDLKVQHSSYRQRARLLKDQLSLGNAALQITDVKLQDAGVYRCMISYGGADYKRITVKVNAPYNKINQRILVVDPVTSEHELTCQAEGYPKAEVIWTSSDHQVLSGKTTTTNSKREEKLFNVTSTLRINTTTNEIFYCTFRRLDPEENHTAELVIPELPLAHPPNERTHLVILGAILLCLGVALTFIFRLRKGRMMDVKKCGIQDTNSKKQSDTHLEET

Binder | binding result (human PDL1) | Kd [1] | Average Efferocytosis blocking IC50 [2] | Kd [3]
B1 | no binding | 77.8 nM | 37.9 nM | –
B2 | – | 51.9 nM | 0.436 nM | –
B3 | no binding | 9.96 nM | 4.45 nM | 40 nM
B4 | – | 2 nM | 0.341 nM | 50 nM
B5 | – | – | 4.42 nM | 40 nM

Reference: patent US20240279341A1 (Alector, published 2024)
